Laboratory results: the RNAGym collection of RNA variant scans (doi:10.1073/pnas.2313332121)

B1: TPR t1 (parent)
chain: GACCAAUCUGCCCUCAGAGCUCGAGAACAUCUUCGGAUGCAGAGGAGGCAGGCUUCGGUGGCGCGAUAGCGCCAACGUCCUCAACCUCCAAUGCAUCCCACCACAUGAUGAUGCCUGAAGAGCCUUGGUUUUUUG

Variants of: B1
Assay: polymerase ribozyme fitness, log enrichment relative to wild type (log ratio); higher = more active; in vitro selection for triplet polymerase activity
Outline: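 To select mutant libraries of each subunit of a heterodimeric triplet polymerase ribozyme, built by PCR and transcribed, each was annealed with a biotinylated primer, partner subunit and triplets, then incubated frozen at −7 °C. Extended constructs were gel-excised, captured on streptavidin beads and amplified by RT-PCR, in one round carried out in triplicate. Illumina sequencing of input and output libraries kept genotypes with ≥10 input reads and ≥1 read per output. Fitness is the base-2 logarithm of genotype enrichment relative to wild-type enrichment, from inverse-variance-weighted replicate averages.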

Variant | polymerase ribozyme fitness (log ratio)
GACCAAUCUGCCCUCAGAGCUCGAGAACAUCUUCGGAUGCAGAGGAGGCAGGCUUCGGUGACGCGAUAGCGCCAACGUCCAAAACCUCCAAUGCAUCUCACCACAUGAUGAUGCCUGAAGAGCCUUGGUUUUUUG | -1.55
GACCAAUCUGGCCUCAGAGCUCGAGAACAUCUUCGGUUGCAGAGGAGGCAGGCUUCGGUGGCGCGAUAGCGGCAACGUCCUCAACCUCCAAUGCAUCCCACCACAUGAUGCUGCCUGAAGAGCCUUGGAUUCUUG | -0.79
GACCAAUCUGCCCUCAGAGCCCGAGAACAUCUUCGGAUGCAGAGGAGGCAGCCUUCGGUGACGCGAUAGCGCCAACGUCCUAAACCUCCAAUGCAUCCCACCACAUGAUGAUGCCUGAAGAGCCUUGGUUUUUUG | -0.816
GACCAAUCUGCCCUCAGAGCUCGAGAACAUCUUCGGAUGCAGAGGAGGCAGGCUUCGGUGGCGCGAUAGCGCCAACGUCCUCAACCUGCAAUGCAUCCCACCACAUGAUGAUGCCUAAACAGCCUUGGUUUUUUG | -4.17
GACCAAUCUGCCCUCAGAGCUCGAGAACAUCUUCGGAUGCAGAGGAGGCAGGCUUCGGUGGCUCGAUCGCGCCAACGUCCUCAACCUCCAAUGCAUCCCACCACAUGAUGAUGCCUGAAGGGCCUUGGUUUUUUG | -5.43
GACCAAUCUGCUCUCAGAGCUCGAGAACAUCUUCGGAUGCAGAGGAGGCAGGCUUCGGUGGCGCGAUAGCGCCAACGUCCUCAACCUCCAACGCAUCCCACCACAUGAUGAUGCCUGAAGAGCCUUGGUUUUUUG | -1.15
GACCAAUCUGCCCUCAGAGCUCGAGAACAUCUUCGGAUGCGGAGGAGGCAGGCUUCGGUGGCGCGAUAGCGCCAACGUCCUCAACCUCCAAUGCAUCCCAACACAUGAUGAUGCCUGAAGAGCCUUGGUUUUUUG | -1.25
GACCAAUCUGCCCUCAGAGCUCGAGAACAUCUUCGGAUGCAGAGGAAUCAGGCUUCGGUGGCGCGAUAGCGCCAACGUCCUCAACCUCCAAUGCAUCCCACCACAUGAUGAUGCCUGAAGAGCCUUGGUUUUUUG | -1.13
GACUAAUCUGCCCUCAGAGCUCGAGAACAUCUUCGGAUGCAGAGGAGGCAGGCUUCGGUGGCGCGAUAGCGCCAGAUUCCUCAACCUCCAAUGCAUCCCACCACAUGAUGAUGCCUGAAGAGCCUUGGUUUUUUG | -2.12
GACCAAUCGGCGCUCAGAGCUCGAGAACAUCUUCGGAUGCAGAGGAGGCAGGAUUCGGUGGCGCGAUAGCGCCAACGUCCUCAACCUCCAAUGCAUCCUACUACAUGAUGAUGCCUGAAGAGCCUUGGUUUUUUG | -5.32
GACCAAUCUGCCCUCAGAGCUCGAGAACAUCUUCGGAUGCAGAGGAGGCAGGCUUCGGUGGCGCGAUAGCGCCAACGUCCUAAAACUCCAAUGCAUCCCACCACAUGAUGAUGCCUGAAGAGCCUUGGUUUUUUG | -1.3
GACCAAUCUGCCCUCAGAGCUCGAGAACAUCUUCUGAUGCAGAGGAGGCAGGCUUCGGUGGCGCGAUAGCGCCAACGUCCUCAACCUCCAAUGCAUCCCACCACAUGAUGAUGCCUGAAGAGCCUUGGUUUUUUG | -4.66
GACCAAUCUGCCCUCAGAGCUCGAGAACAUCUUCGGAUGCAGAGGAGGCAGGCUUCGGUGGCGCGAUAUCGCCAACGUCCUCAACCUCCAAUGCAUCCCACCACAUGAUGAUGCCUUAAGAGCCUUGGUUUUUUG | -1.07
GACCAAUCUGCCCUCAGAGCUCGAGAACAUCUUCGGAUGCAGAGGAGGCAGGCUUCGGUGGCUCGAUAGCGCCAACGUCCUCAACCUCCAAUGCAUCCCACCACAUGAUGAUGCCUGAAGAGCCUUGGUAUUUUG | -1.46
GACCAAUCUGCCCUCAGAGCUCGAGAACAUCUUCGGAUGCAGAGGAGGCAGGCUGCGGUGGCGUGAUAGCGCCAACGUCCUCAACCUCCCAGGCAUCCCAACACAUGAUGAUGCCUGAAGAGCCUUGGUUUUUUG | -3.82
GACCAAUCUGCGCUCAGAGCUCGAGAACAUCUUCGGAUGCAGAGGAGGCAGGCUUCGGUGGGGCGAUAGCGCCAACGUCCUCAACCUCCAAUGCAUCCGACCACAUGAUGAUGCCUGAAGAGCAUUGGUUUUUUG | -7.37
GACCAAUCUGCCCUCAGAGCUCGAGAACAUCUUCGGAUGCAGAGGAGGCAGGCUUCGGUGGCGCGAUAGCGCCAACGUCCUCAACCUCCAAUGCAUCCCACCACAUGAUGAGGCCUGAAGAGCCUUGGUCUUUUG | 0.265
GACCAAUCUGCUCUCAGAGCUCGAGAACAUCUUCGGAUGCAGAGGAGGCAGGCUUCGGUGGCGCGAUAGCGCCAACGUCCUCAACCUACAAUGCAUCCCACCACAUGAUGAUGCCUGAAGAGCCUUGGUUUUUUG | -0.264
GACCAAUCUGCCCUCAGAGCUCGAGAACAUCUUCGGAUGCAGAGGAGGCAGGCUUCGGAGGCGCGAUAGAGCCAACGUCCUCAACCUCCAAUGCAUCCCACAACAUGAUGAUGCCUGAAGAGCCUUGGUUUUUUG | -5.39
GACCAAUCUGCCCUCAGAGCUCGAGAACAUCUUCGGAUGCAGAGGAGGCAGGCUUCGGUGGCGCGAUAGCGCCAACGUCCUCAACCUCCAAUGCAUGCCACCACAUGAUGAUCCCUGAAGAUCCUUGGUUUUUUG | -5.4
GACCAAUCUGCCCUCAGAGCUCGAGAACAUCUUCGGAUGCAGAGGAGGCAGGCUUCGGUGGCGCGAUAGCGCCCACGUCCUAAACCUCCAAUGCAUCCCACCACAUGAUGAUUCCUGAAGAGCAUUGCUUGUUUG | -4.12
